These are literature values, as cited in patent publication US11535641B2, “Method for preparing GOS having reduced allergenicity” (FRIESLANDCAMPINA NEDERLAND B.V., priority 2017, dated 2022).

Read-outs that look alike come from different tables or passages of the source. Bounds are passed on as bounds.

For data set [1] the following is noted: GOS yield about 50% (65° C., 24 hours).
For data set [2] the following is noted: for Ratio in GOS (%) DP2*: lactose not included; for Amount of GOS (content of GOS in total sugar): 24 hours, 53% lactose, 1 U per g lactose.
The conditions of data set [3]: acetate buffer (pH 6.0).
Setting [4] is: comparison of enzymes, GOS yield about 50%.
[5] abbreviates: comparison of enzymes, typical results when GOS yield about 50% (65° C., 24 hours).

B1: C. terrestris M6 (mutant strain enzyme 3): β-galactosidase with N-terminal 141 residues of wild-type deleted, SEQ ID NO: 4 (protein, listed as Cryptococcus terrestris)
chain: ATGPVGGQGTPAVNFTDYSSSSLEQFWNDWVGEVEEPPFAYVPEPPNPYPLPNAPPPIYPEYYTKRPKDILPDYKFPKDFLFGWATAAQQWEGAVKADGKGPSIWDWASRFPGFIADNTTSDVGDLGYYLYKEDLARIAALGANVYSFSMFWTRIFPFGKADSPVNQAGIDFYHDLIDYSWSLGIEPVVTLFHWDTPLALQLEYGGFASERIIDDYVNYAETVFKAYNGSVHKWVTFNEPVVFCSQMAAPVNTTLPPNLNSTIYPYTCSYHLVLAHAKTVKRFRELNIQGQIAFKSDNFVGIPWREGNQEDIDAVERHQAYQIGIFAEPIYNTGDWPDIVKNDLSPDILPRFTDDEIAMIKCTADFFPIDGYRDGYVQAVPGGVEACVANISNPLWPACNQVNFYDSTPAGWAIGTFGNWPTTPWLQNTWQFVRPFLADLAKRYPTEGGIYLSEFGFSEPFENDKTFIYQITQDSGRTAYFNSYLGEVLKGIVEDGIPIKGVFGWSMVDNFEWNSGLSTRFGVQYVDYNSPTRQRTFKRSALEMSEFWNAHRCSA
B1: in data set [1], the “Ratio in DP3 (%) β1-2, β1-3” value is reported as 22.1%; the “Ratio in DP3 (%) β1-4” value is on record as 75.2%; the “Ratio in DP3 (%) β1-6” value was 2.7%. Also, the “Ratio in GOS (%) DP2*” value in data set [2] (setting [4]) is recorded as 25.8%. In data set [2] (setting [5]), the “Ratio in GOS (%) DP3” value is 54.2% and the “Ratio in GOS (%) ≥ DP4” value was 19.9%. Moreover, in data set [2] (reaction temperature 50° C.), the “Ratio in GOS (%) DP3” value is listed as 68.9%, the “Ratio in GOS (%) ≥ DP4” value is 6.4%, the “Amount of GOS (content of GOS in total sugar)” value (shortened to “Amount of GOS”) is listed as 46.9% and the “Ratio in GOS (%) DP2*” value is reported as 24.7%. Further, in data set [2] (reaction temperature 60° C.), the “Ratio in GOS (%) DP3” value was 58.2%, the “Ratio in GOS (%) ≥ DP4” value was 16.1%, the “Amount of GOS” value is recorded as 52.1% and the “Ratio in GOS (%) DP2*” value is given as 25.8%. In data set [2] (reaction temperature 65° C.), the “Ratio in GOS (%) DP3” value is given as 53.4%, the “Ratio in GOS (%) ≥ DP4” value is recorded as 20.9%, the “Amount of GOS” value is 53.2% and the “Ratio in GOS (%) DP2*” value was 26.0%. Besides, in data set [2] (reaction temperature 70° C.), the “Ratio in GOS (%) DP3” value is given as 49.2%, the “Ratio in GOS (%) ≥ DP4” value was 24.5%, the “Amount of GOS” value was 53.9% and the “Ratio in GOS (%) DP2*” value is listed as 26.3%. Also, in data set [3], the optimum temperature is 70 °C.

B2: WT strain enzyme: β-galactosidase from Cryptococcus terrestris strain MM13-F2171, SEQ ID NO: 1 (protein, listed as Cryptococcus terrestris)
chain: MIPASALLAAVPLLAQQVSAGILRRQNAAGSDSAAPDSIADASTGVVSSIATEAVSSGATGLVASVAMSFASSMATPTATVTGLSSETGAPSNTPMASASGSVPTTTSAVGSGDFDWVQTDGLPTITTTLATTNQDAITPTATGPVGGQGTPAVNFTDYSSSSLEQFWNDWVGEVEEPPFAYVPEPPNPYPLPNAPPPIYPEYYTKRPKDILPDYKFPKDFLFGWATAAQQWEGAVKADGKGPSIWDWASRFPGFIADNTTSDVGDLGYYLYKEDLARIAALGANVYSFSMFWTRIFPFGKADSPVNQAGIDFYHDLIDYSWSLGIEPVVTLFHWDTPLALQLEYGGFASERIIDDYVNYAETVFKAYNGSVHKWVTFNEPVVFCSQMAAPVNTTLPPNLNSTIYPYTCSYHLVLAHAKTVKRFRELNIQGQIAFKSDNFVGIPWREGNQEDIDAVERHQAYQIGIFAEPIYNTGDWPDIVKNDLSPDILPRFTDDEIAMIKCTADFFPIDGYRDGYVQAVPGGVEACVANISNPLWPACNQVNFYDSTPAGWAIGTFGNWPTTPWLQNTWQFVRPFLADLAKRYPTEGGIYLSEFGFSEPFENDKTFIYQITQDSGRTAYFNSYLGEVLKGIVEDGIPIKGVFGWSMVDNFEWNSGLSTRFGVQYVDYNSPTRQRTFKRSALEMSEFWNAHRCSA
As for B2, in data set [1], the “Ratio in DP3 (%) β1-2, β1-3” value is listed as 22.1%; the “Ratio in DP3 (%) β1-4” value is given as 76.3%; the “Ratio in DP3 (%) β1-6” value is reported as 1.5%. Also, the “Ratio in GOS (%) DP2*” value in data set [2] (setting [4]) is 25.8%. In data set [2] (setting [5]), the “Ratio in GOS (%) DP3” value is reported as 57.5% and the “Ratio in GOS (%) ≥ DP4” value was 16.7%. In data set [2] (reaction temperature 65° C.), the “Ratio in GOS (%) DP3” value is listed as 51.8%, the “Ratio in GOS (%) ≥ DP4” value is listed as 22.1%, the “Amount of GOS” value is given as 53.4% and the “Ratio in GOS (%) DP2*” value was 26.1%. For the same molecule, in data set [2] (reaction temperature 70° C.), the “Ratio in GOS (%) DP3” value is 47.4%, the “Ratio in GOS (%) ≥ DP4” value is 25.8%, the “Amount of GOS” value is given as 54.2% and the “Ratio in GOS (%) DP2*” value is given as 26.8%. For the same molecule, in data set [3], the optimum temperature was 70 °C. For the same molecule, in data set [3] (within the stable temperature range, 30 minutes), the enzyme activity retained is reported as at least 80%.

B3: C. terrestris M2 (mutant strain enzyme 1): β-galactosidase with N-terminal 130 residues of wild-type deleted, SEQ ID NO: 2 (protein, listed as Cryptococcus terrestris)
chain: ATTNQDAITPTATGPVGGQGTPAVNFTDYSSSSLEQFWNDWVGEVEEPPFAYVPEPPNPYPLPNAPPPIYPEYYTKRPKDILPDYKFPKDFLFGWATAAQQWEGAVKADGKGPSIWDWASRFPGFIADNTTSDVGDLGYYLYKEDLARIAALGANVYSFSMFWTRIFPFGKADSPVNQAGIDFYHDLIDYSWSLGIEPVVTLFHWDTPLALQLEYGGFASERIIDDYVNYAETVFKAYNGSVHKWVTFNEPVVFCSQMAAPVNTTLPPNLNSTIYPYTCSYHLVLAHAKTVKRFRELNIQGQIAFKSDNFVGIPWREGNQEDIDAVERHQAYQIGIFAEPIYNTGDWPDIVKNDLSPDILPRFTDDEIAMIKCTADFFPIDGYRDGYVQAVPGGVEACVANISNPLWPACNQVNFYDSTPAGWAIGTFGNWPTTPWLQNTWQFVRPFLADLAKRYPTEGGIYLSEFGFSEPFENDKTFIYQITQDSGRTAYFNSYLGEVLKGIVEDGIPIKGVFGWSMVDNFEWNSGLSTRFGVQYVDYNSPTRQRTFKRSALEMSEFWNAHRCSA
As for B3, in data set [1], the “Ratio in DP3 (%) β1-2, β1-3” value is listed as 20.7%; the “Ratio in DP3 (%) β1-4” value is on record as 79.0%; the “Ratio in DP3 (%) β1-6” value is reported as 0.4%. Moreover, the “Ratio in GOS (%) DP2*” value in data set [2] (setting [4]) is on record as 25.3%. Besides, in data set [2] (setting [5]), the “Ratio in GOS (%) DP3” value is 60.5% and the “Ratio in GOS (%) ≥ DP4” value is recorded as 14.2%. Further, the optimum temperature in data set [3] is 70 °C.
